Patent US20040043959A1, “Combination therapies for treating methylthioadenosine phosphorylase deficient cells” (priority 2002, published 2004)

Legend:
Assay in all cases: MTAP substrate assay, coupled spectrophotometric (adenine, xanthine oxidase)
Format in all cases: biochemical, human
Conditions in all cases: other: substrate of MTAP, 37° C.
[1] = substrate: Nc1ncnc2c1ncn2[C@@H]1O[C@H](CNC2CCCC2)[C@@H](O)[C@H]1O
Method: (§1) An enzymatic assay to determine the activity of MTAP against a given substrate was performed. Human MTAP containing an N-terminal six-histidine tag was expressed in E. coli BL21 DE3 cells. The protein was purified to homogeneity by Ni2+ affinity chromatography. Enzymatic activity was measured using a coupled spectrophotometric assay designed to monitor the reaction product adenine (Savarese, T. M., Crabtree, G. W., and Parks, R. E. Jr., (1980) Biochem. Pharmacol. 30, 189-199). Various concentrations of the indicated 5′-deoxymethylthio adenosine (MTA) or substrate were incubated in assay buffer (40 mM potassium phosphate buffer, 1 mM, and DTT 0.8 units/ml xanthine oxidase coupling enzyme) for 5 minutes at 37° C. The reaction was initiated by the addition of MTAP. The exact concentration of enzyme used varied for each substrate tested and ranged from 2 nM to 500 nM. Activity as a function of enzyme concentration was determined for each substrate tested to ensure that the appropriate enzyme concentration was used. Activity was detected by continuous monitoring of absorbance at 305 nm for 10 minutes (ΔE=15,500 M^−1).
(§2) Library compounds (10 and 50 uM) were tested using the assay described above with 2 nM MTAP enzyme. The resultant initial velocities are reported as a percentage of the initial velocity observed when MTA is the substrate. MTA controls, 10 and 50 uM concentrations, were run on each plate alongside the library compounds.

[2] = substrate: NCCSC[C@H]1O[C@@H](n2cnc3c(N)ncnc32)[C@H](O)[C@@H]1O
Method: as §1, §2

[3] = substrate: CCOC(=O)CC[C@H]1O[C@@H](n2cnc3c(N)ncnc32)[C@H](O)[C@@H]1O
Method: as §1, §2

[4] = substrate: Nc1ncnc2c1ncn2[C@@H]1O[C@H](CSC2CCCC2)[C@@H](O)[C@H]1O
Method: as §1, §2

[5] = substrate: CC(C)(C)SC[C@H]1O[C@@H](n2cnc3c(N)ncnc32)[C@H](O)[C@@H]1O
Method: as §1, §2

[6] = substrate: C[C@H]1O[C@@H](n2cnc3c(N)ncnc32)[C@H](O)[C@@H]1O
Method: as §1, §2

[7] = substrate: COc1ccc(CSC[C@H]2O[C@@H](n3cnc4c(N)ncnc43)[C@H](O)[C@@H]2O)cc1
Method: as §1, §2

[8] = substrate: Nc1ncnc2c1ncn2[C@@H]1O[C@H](CNCCO)[C@@H](O)[C@H]1O
Method: as §1, §2

[9] = substrate: Nc1ncnc2c1ncn2[C@@H]1O[C@H](CSCCc2ccccc2)[C@@H](O)[C@H]1O
Method: as §1, §2

[10] = substrate: COc1ccc(SC[C@H]2O[C@@H](n3cnc4c(N)ncnc43)[C@H](O)[C@@H]2O)cc1
Method: as §1, §2

[11] = substrate: Nc1ncnc2c1ncn2[C@@H]1O[C@H](CSc2nccs2)[C@@H](O)[C@H]1O
Method: as §1, §2

[12] = substrate: CCOC(=O)CCSC[C@H]1O[C@@H](n2cnc3c(N)ncnc32)[C@H](O)[C@@H]1O
Method: as §1, §2

[13] = substrate: Nc1ncnc2c1ncn2[C@@H]1O[C@H](CSCc2ccccc2)[C@@H](O)[C@H]1O
Method: as §1, §2

[14] = substrate: Nc1ncnc2c1ncn2[C@@H]1O[C@H](CNCc2ccc(F)cc2)[C@@H](O)[C@H]1O
Method: as §1, §2

[15] = substrate: CCSC[C@H]1O[C@@H](n2cnc3c(N)ncnc32)[C@H](O)[C@@H]1O
Method: as §1, §2

[16] = substrate: CCCCSC[C@H]1O[C@@H](n2cnc3c(N)ncnc32)[C@H](O)[C@@H]1O
Method: as §1, §2

B1: Human MTAP (Homo sapiens) (protein)
chain: MASGTTTTAVKIGIIGGTGLDDPEILEGRTEKYVDTPFGKPSDALILGKIKNVDCVLLARHGRQHTIMPSKVNYQANIWALKEEGCTHVIVTTACGSLREEIQPGDIVIIDQFIDRTTMRPQSFYDGSHSCARGVCHIPMAEPFCPKTREVLIETAKKLGLRCHSKGTMVTIEGPRFSSRAESFMFRTWGADVINMTTVPEVVLAKEAGICYASIAMATDYDCWKEHEEAVSVDRVLKTLKENANKAKSLLLTTIPQIGSTEWSETLHNLKNMAQFSVLLPRH
notes: six-histidine tag (His6) (N); made in house; host or cells: E. coli BL21 DE3
Km [1]: 600 µM
kcat [1]: 0.3 s⁻¹
Km [2]: 390 µM
kcat [2]: 0.141 s⁻¹
Km [3]: 5.95 µM
kcat [3]: 4.12 s⁻¹
Km [4]: 3.2 µM
kcat [4]: 1.5 s⁻¹
Km [5]: 17 µM
kcat [5]: 0.85 s⁻¹
Km [6]: 6 µM
kcat [6]: 4.8 s⁻¹
Km [7]: 3.7 µM
kcat [7]: 3.8 s⁻¹
Km [8]: 758 µM
kcat [8]: 0.029 s⁻¹
Km [9]: 5 µM
kcat [9]: 2.14 s⁻¹
Km [10]: 7 µM
kcat [10]: 0.8 s⁻¹
Km [11]: 3.4 µM
kcat [11]: 2.49 s⁻¹
Km [12]: 4.3 µM
kcat [12]: 1.54 s⁻¹
Km [13]: 4.65 µM
kcat [13]: 2.5 s⁻¹
Km [14]: 145 µM
kcat [14]: 0.089 s⁻¹
Km [15]: 1.8 µM
kcat [15]: 2.9 s⁻¹
Km [16]: 3.3 µM
kcat [16]: 5.4 s⁻¹
